The text below walks through data of PMC2241918.

In data set [1] the target is Cfr42I restriction endonuclease (Citrobacter freundii RFL42). The data set is described as follows: AUC.
In data set [2] the target is T1, Cfr42I restriction endonuclease (Citrobacter freundii RFL42, UniProt B0LL99 1-216).
T1 sequence: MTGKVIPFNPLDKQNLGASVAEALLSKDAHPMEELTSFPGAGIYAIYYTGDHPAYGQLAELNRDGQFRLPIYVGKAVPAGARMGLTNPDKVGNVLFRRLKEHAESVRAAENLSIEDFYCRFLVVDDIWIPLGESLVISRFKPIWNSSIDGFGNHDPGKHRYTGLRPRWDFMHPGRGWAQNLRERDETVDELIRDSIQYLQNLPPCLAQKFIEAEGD
Nature of the data set: EMSA. For orientation: A gel shift assay detects complexes by their altered migration in electrophoresis.

In data set [3] the target is T1, Cfr42I restriction endonuclease. Nature of the data set: EMSA. The source holds these as a separate data set.

Where two headings read alike, the source gives them in different places.

A word on the stoichiometry N: it is the number of molecules, sites or subunits per partner or assembly. Molecule “Cfr42I restriction endonuclease (enzyme)” registered a stoichiometry N in data set [1] of 4.

B1: 30/30 (dsDNA)
DNA 1: AGACCCACGCCACCGCGGTGGAGATTACGG
DNA 2: CCGTAATCTCCACCGCGGTGGCGTGGGTCT
For B1, the binding result in data set [2] was “binds”.

B2: 16/16 (dsDNA)
DNA 1: CGCCACCGCGGTGGCG
DNA 2: CGCCACCGCGGTGGCG
On to B2, for which, in data set [3], the binding result is listed as “binds”.
